Assay results published in patent US20260055200A1, “COMBINATION THERAPIES” (Alligator Bioscience AB, priority 2022, published 2026).
“Also recorded” adds a separate entry of the source.

Experiments:
[1] = tested on: metastatic pancreatic ductal adenocarcinoma; test: OPTIMIZE-1 anti-tumour activity per RECIST v. 1.1 (ORR, BOR, DCR, DoR, time to progression, PFS, OS); format: in vivo, human
Protocol: The interim analysis was based on objective response rate (ORR) observed for all patients dosed at the mitazalimab RP2D. The interim analysis included efficacy data up to 17 weeks of study treatment (8 cycles for mFOLFIRINOX and 4 cycles for gemcitabine plus nab-paclitaxel).
A CT scan is performed at screening (within 28 days of first dose), 9 weeks after start of study treatment (end of cycle 4 for mFOLFIRINOX combination and at end of Cycle 2 for gemcitabine plus nab-paclitaxel treatment) and thereafter at every 8th week assuming no treatment delays. Additional CT scans may be performed at the discretion of the Investigator at unscheduled visits. The CT scans were evaluated according to RECIST v. […] Patients with response (PR or CR) can have a confirmatory CT scan at least 4 weeks later to confirm the response.
The evaluation of tumour response was done according to RECIST v. 1.1 by the investigational sites using CT scans according to Example 3 RECIST v. […] Patients with PD can discontinue study treatment. However, patients with suspected progression are allowed to continue on treatment if they are considered to be clinically stable in the opinion of the Investigator until clinical or radiological progression is documented.
For the interim analysis, the ORR was based on the response evaluation after 8 cycles for mitazalimab in combination with mFOLFIRINOX or 4 cycles for mitazalimab in combination with gemcitabine plus nab-paclitaxel (i.e., approximately 4 months after first dose). […] In addition, ORR was presented for each study visit. Patients not evaluable for ORR and who completed at least 2 cycles were considered as non-responders.
All secondary efficacy endpoint were presented using descriptive statistics. Best Overall Response (BOR) for each patient will be defined as the best response from RECIST v. 1.1 categories CR, PR, SD and PD at any time during the study. Disease control rate will be defined as either CR, PR or SD at each visit as determined by RECIST v. […] The duration of response (DoR) was defined as number of days from initial response of CR or PR to progressive disease or death due to underlying disease, whichever came first. Duration of Stable Disease (SD) was defined as number of days from first dose of mitazalimab to progressive disease or death, whichever came first. Time to next anti-cancer therapy was defined as number of days from the time from first dose of mitazalimab to next treatment initiated.

CD40 = biological target: T1, CD40 (Homo sapiens, UniProt P25942); conditions: human monocyte-derived DC cultures; cited from earlier work
T1 construct: validated in vitro in human monocyte-derived DC cultures; endogenous in cells; host or cells: human monocyte-derived dendritic cells
T1 sequence (P25942 21-277): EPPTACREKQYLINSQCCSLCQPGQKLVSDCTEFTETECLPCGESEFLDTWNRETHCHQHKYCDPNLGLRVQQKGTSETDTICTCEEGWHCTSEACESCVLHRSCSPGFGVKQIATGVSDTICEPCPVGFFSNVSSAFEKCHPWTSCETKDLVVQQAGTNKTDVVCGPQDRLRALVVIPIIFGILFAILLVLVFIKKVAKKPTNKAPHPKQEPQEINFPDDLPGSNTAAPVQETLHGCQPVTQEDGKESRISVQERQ

[2] = tested on: tumour associated macrophages (TAMs); conditions: TAMs from human prostate and ovarian tumour samples; cited from earlier work
[3] = tested on: human tumours transplanted into NSG mice; bladder cancer cells in hCD40tg mice; conditions: cited from earlier work
[4] = tested on: CD40-mediated immune cell activation; conditions: cited from earlier work
[5] = tested on: advanced stage solid tumours; conditions: cited from earlier work
[6] = 900 μg/kg mitazalimab, N = 38, safety set, Table 25
[7] = 900 μg/kg mitazalimab, N = 65, Table 42
[8] = Overall, N = 43, safety set, Table 25
[9] = futility analysis (FAS), 900 μg/kg mitazalimab and mFOLFIRINOX, 23 patients
[10] = individual patients, End of Treatment visit, 900 μg/kg mitazalimab + mFOLFIRINOX, futility analysis
[11] = individual patients, Unscheduled visit, 900 μg/kg mitazalimab + mFOLFIRINOX, futility analysis
[12] = individual patients, visit Cycle 4, 900 μg/kg mitazalimab + mFOLFIRINOX, futility analysis
[13] = individual patients, visit Cycle 8, 900 μg/kg mitazalimab + mFOLFIRINOX, futility analysis

B1: Mitazalimab: agonistic, human monoclonal (IgG1) antibody targeting CD40 (antibody, chains of the INN, looked up, V domains shown)
VH: EVQLLESGGGLVQPGGSLRLSCAASGFTFSTYGMHWVRQAPGKGLEWLSYISGGSSYIFYADSVRGRFTISRDNSENALYLQMNSLRAEDTAVYYCARILRGGSGMDLWGQGTLVTVSS
VL: QSVLTQPPSASGTPGQRVTISCTGSSSNIGAGYNVYWYQQLPGTAPKLLIYGNINRPSGVPDRFSGSKSGTSASLAISGLRSEDEADYYCAAWDKSISGLVFGGGTKLTVL
- Discontinued treatment: Death due to disease progression, percentage of patients [1, 6]: (2.6) %
- Discontinued treatment: Progressive disease, number of patients [1, 6]: 3
- Discontinued treatment: Progressive disease, percentage of patients [1, 6]: (7.89) %
- Discontinued study: Death due to disease progression, number of patients [1, 7]: 15
- Discontinued study: Death due to disease progression, percentage relative to number discontinued [1, 7]: 83.3%
- Discontinued treatment: Death, number of patients [1, 7]: 1
- Discontinued treatment: Death, percentage relative to number discontinued [1, 7]: 3.0%
- Discontinued treatment: No longer clinically benefiting, number of patients [1, 7]: 3
- Discontinued treatment: No longer clinically benefiting, percentage relative to number discontinued [1, 7]: 9.1%
- Discontinued treatment: Progressive disease, number of patients [1, 7]: 19
- Discontinued treatment: Progressive disease, percentage relative to number discontinued [1, 7]: 57.6%
- Discontinued study: Death due to disease progression, number of patients [1, 8]: 3
- Discontinued study: Death due to disease progression, percentage of patients [1, 8]: (7.0) %
- Discontinued treatment: Clear clinical deterioration, number of patients [1, 8]: 1
- Discontinued treatment: Clear clinical deterioration, percentage of patients [1, 8]: (2.3) %
- Discontinued treatment: Death due to disease progression, number of patients [1, 8]: 3
- Discontinued treatment: Death due to disease progression, percentage of patients [1, 8]: (7.0) %
- Discontinued treatment: Progressive disease, number of patients [1, 8]: 5
- Discontinued treatment: Progressive disease, percentage of patients [1, 8]: (11.6) %
- Discontinued treatment: Death, number of patients ([1]; Overall, Table 42): 1
- Discontinued treatment: Death, percentage relative to number discontinued ([1]; Overall, Table 42): 2.6%
- Discontinued treatment: No longer clinically benefiting, number of patients ([1]; Overall, Table 42): 3
- Discontinued treatment: No longer clinically benefiting, percentage relative to number discontinued ([1]; Overall, Table 42): 7.7%
- Discontinued treatment: Progressive disease, number of patients ([1]; Overall, Table 42): 24
- Discontinued treatment: Progressive disease, percentage relative to number discontinued ([1]; Overall, Table 42): 61.5%
- ORR [1, 9]: 52.2%
- disease control rate [1, 9]: 91.3%
- responders with a confirmed response via a subsequent scan ([1]; futility analysis, 900 μg/kg mitazalimab and mFOLFIRINOX): 8 out of 12
- Non-target lesion(s) response [1, 10]: Non-CR/non-PD
- Overall response [1, 10]: PD (progressive disease (PD))
- Target lesion(s) response [1, 10]: PD (progressive disease (PD))
- Non-target lesion(s) response [1, 11]: Non-CR/non-PD
- Overall response [1, 11]: PD (progressive disease (PD)); also recorded: SD (stable disease (SD))
- Target lesion(s) response [1, 11]: PD (progressive disease (PD)); also recorded: SD (stable disease (SD))
- Non-target lesion(s) response [1, 12]: Non-CR/non-PD
- Overall response [1, 12]: SD (stable disease (SD))
- Target lesion(s) response [1, 12]: SD (stable disease (SD))
- Non-target lesion(s) response [1, 13]: Non-CR/non-PD
- Overall response [1, 13]: SD (stable disease (SD)); also recorded: PD (progressive disease (PD))
- Target lesion(s) response [1, 13]: SD (stable disease (SD)); also recorded: PD (progressive disease (PD))
- Best Overall Response ([1]; individual patients, 900 μg/kg mitazalimab + mFOLFIRINOX, futility analysis, responses need not be confirmed): PD (progressive disease (PD)); also recorded: SD (stable disease (SD))
- activation markers (CD80, CD86) on DCs and release of IL-12 (CD40): up-regulation of activation markers on the surface of DCs
- polarization of TAMs (upregulation of e.g. CD83) [2]: from a more immune-suppressive phenotype into a more immune-inflammatory phenotype
- immunity to tumour re-challenge ([3]; bladder cancer cells in hCD40tg mice): at least 5 months
- effect on tumour growth and survival in combination ([3]; combined with checkpoint inhibitors, vaccination or chemotherapy (e.g. mFOLFIRINOX), hCD40tg mice): synergistically enhanced effect
- anti-tumour efficacy in vivo ([3]; human tumours in NSG mice and hCD40tg mice): immune-mediated and antibody-dependent cell-mediated cytotoxicity (ADCC)-dependent anti-tumour efficacy
- NK cells and T cells in peripheral blood after infusion ([4]; all doses except 75 μg/kg): decreased
- B cells in peripheral blood after IV administration ([4]; all doses tested, dose-dependent recovery): margination of B cells was observed
- time of peak of peripheral MCP-1, IP-10 and MIP-1B chemokines post-infusion ([4]; in vivo, ip): 1 to 4 h
- CD40 receptor occupancy on B cells ([4]; in vivo): dose dependent
- IL-6 levels following infusion ([4]; in vivo): not elevated
- duration of CD40 engagement post administration ([4]; in vivo): through Day 8
- recovery of NK cell and T cell levels ([4]; in vivo): fully recovered by study Day 8
- doses shown safe and well tolerated ([5]; Phase I study NCT02829099): up to 1200 μg/kg
- grade of most drug related adverse events ([5]; Phase I study NCT02829099): grade 1 or 2
- patients who experienced a DLT ([5]; headache 5 days, grade 3 liver enzyme with grade 2 bilirubin elevation): Two
- MTD ([5]; human, in vivo, iv): No MTD was identified
- duration of SD in one of seven pancreatic cancer patients ([5]; in vivo): more than 6 months
- response observed ([5]; patient with renal cell cancer, 1200 μg/kg): partial response (PR)
- time on study of the patient with PR ([5]; renal cell cancer, 1200 μg/kg, fourteen cycles): 9.2 months
